Changes are numbered by the printed parent chain.
T1: Human CD53-CHO (full-length human CD53 over-expressed on CHO-K1 cells) (human, UniProt P19397 1-219)
T1 construct: Tetraspanin cell-surface antigen
T1 sequence: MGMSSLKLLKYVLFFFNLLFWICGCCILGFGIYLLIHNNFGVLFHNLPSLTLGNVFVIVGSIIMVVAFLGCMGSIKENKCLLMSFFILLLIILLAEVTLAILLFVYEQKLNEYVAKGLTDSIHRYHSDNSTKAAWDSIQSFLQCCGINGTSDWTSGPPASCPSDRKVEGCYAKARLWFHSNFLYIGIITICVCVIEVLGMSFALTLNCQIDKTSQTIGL

B1: 3A21 (antibody, V domains shown)
VH: EVQLQQSGAELVRPGASVKLSCTASGFNIKDDYMHWVKQRPEQGLEWIGLIDPENGYAEYASKFQGKATITADTSSNTANLQLNSLTSEDTAVYYCTTWGLLRNYVMDYWGQGTSVTVSS
VL: DIVMTQAAFSNPVTLGTSASISCSSSKSLLHSNGITYLYWYLQRPGQSPQLLIYRMSNLASGVPDRFSGSGSGTDFTLRVNRVEADDVGVYYCAQMLERPRTFGGGTKLEIK
notes: Murine anti-human CD53 mAb purified from subcloned hybridoma; detected with anti-mouse IgG
B2: 10B08 (antibody, V domains shown)
VH: QLQQSGTELVRPGASVKLSCTSSGFNIKDDFMHWVKQRPEQGLEWIGWIDPENGATAYASKFQGKATITADTSSNTAYLQLSSLTSEDTAVYYCTTFGDYYGGRKDYWGQGTTLTVSS
VL: B1 VL with R79G, V80I, N81S, D86E
notes: as for B1
B3: 9E17 (antibody, V domains shown)
VH: QLQQSGAEFVRPGASVKLSCTASGFNIKDDYIHWVKQRPEQGLEWIGRIDPANGYTEYAPKFQGKATITSDTSSNTAYLQLSSLTSEDTAVFYCVWHWDYWGQGTTLTVSS
VL: B1 VL with S26Y, L30Q, S32N, Y41F, Q50H, V80I, N81S, D86E, R101F, G105T
notes: as for B1
B4: 5G03 (antibody, V domains shown)
VH: EVQLQQSGAELVRPGASVKLSCTASGFNIKDDFMHWVRQRPDQGLEYIGRFDPAIGNAKYAPKFQDKATLTADTSSNTAYLHLSSLTSEDTAVYYCAIFYAYWGQGTLVTVSA
VL: DVVMTQTPLSLPVSLGDQASISCRSSQSLVHSNRNTYLHWYLQKPGQSPKLLIYKVSNRFSGVPDRFSGSGSGTDFTLKISRVEAEDLGVYFCSQSTHVPFTFGSGTKLEIK
notes: as for B1
B5: 10N22 (antibody, V domains shown)
VH: EVQLQQSGPELVKPGASVKISCKASGYTFTGYFMNWVKQSHGKSLEWIGDLNPNNGGTNFNQRFKGKATLTVDKSSSTAYMELRSLTSEDSAVYYCARDGYDGGYAMDYWGQGTSVTVSS
VL: DVLMTQTPLSLPVSLGDQASISCRSSQNIVHSSGNTYLEWYLQKPGQSPKLLIFKVSNRFSGVPDRFSGSGSGTDFTLKISRVEAEDLGVYYCFQGSHVPYTFGGGTKLEIK
notes: as for B1
B6: 6J17 (antibody, V domains shown)
VH: EVQLQQSGAELVRPGASVKLSCTASGFNIKDDYMHWVRQRPKQGLEWIGRVDPANGNTKYAPKFQDKATMTADTSSNTAYLRLSSLTSEDTAVYYCAGYFYYSHDGGFACWGQGTLVTVSA
VL: DIVMTQGSPSIPVTPGESVSISCRSSKSLLHRNGNIYLYWFLQRPGQSPQRLIYYMSNLASGVPDRFSGRGSGTDFTLRISRVEAEDVGVYYCMQGLEYPFTFGTGTKLEIK
notes: as for B1
B7: 4B19 (antibody, V domains shown)
VH: QVQLQQSGTELMKPGASVKLSCKATGYTFTGYWIEWVKQRPGHGLEWIGEILPGSYSTNYNEKFKGKATFTADSSSNTAYMQLSSLTTEDSAIYYCTRDSNYEWFDVWGTGTTVTVSS
VL: DVVMTQTPLSLSVTIGQPASISCKSSQSLLHRDGETYLNWLLQRPGQSPKLLIYLVSKLESGIPDRFSGSGSGTDFTLKISRVEVEDLGVYYCLQHTHFPYTFGSGTKLEIK
notes: as for B1
B8: 4N19 (antibody, V domains shown)
VH: EVQLQQSVAELVRPGASVKLSCTASGFSIKNTYMHWVKQRPEQGLEWIGRIDPANGYTQHAPKFQGKATIITDTSSNTAYLQLSSLTSEDTAIYYCAGGGPYYAMDYWGQGTSVTVSS
VL: DIVMTQAAPSVPVTPGESVSISCRSSKSLLHSNGDTYLYWFLQRPGQSPQLLIYRMSNLASGVPDRFSGSGSGTAFTLRISRVEAEDVGVYYCMQHLEYPFTFGAGTKLELK
notes: as for B1
B9: 5M13 (antibody, V domains shown)
VH: EVQLQQSVAELVRPGASVKLSCTASGFNIKNTYMHWVKQRPEQGLEWIGRLDPANGYTQSAPKFQGKATVTADTSSNTAYLHLSSLTSEDTAIYYCLYGNYYYAMAYWGQGTSVTVSS
VL: B8 VL with I2V, V11I, F101Y, A105G, L111I
notes: as for B1
B10: 6K14 (antibody, V domains shown)
VH: EVQLQQSGADLVRPGASVKLSCTASGFNIKDDYIHWVKQRPVQGLEWIGRIDPANGNTKYAPMFRGKATITADTSSNTAYLQLSSLTSEDTAVYYCARSGTGAMDYWGQGTSVTVSS
VL: B8 VL with P12F, L38F, G73T, Y99F, F101L
notes: as for B1
B11: 2M22 (antibody, V domains shown)
VH: EGQLQQSGSELVRPGASVKLSCTASGFNIKDDYVHWVKKRPEQGLEWIGRIDPANGYSHYVPKFHDKATITADTSSNTAYLQLNSLTSDDTAVYYCASGSGSYAMDYWGQGTSVTVSS
VL: B8 VL with D1E, L59V, A85T, Y99S, F101Y, A105G, L111I
notes: as for B1
B12: 10F09 (antibody, V domains shown)
VH: EVQLQQSVAELVRPGASVKLSCTASGFNIKNTYMHWVKQRPAQGLEWIGKIDPANGFTKHAPRFQGKATITSDTSSNTAYLQLSSLTSEDTAIYYCASGWDAAFAYWGQGTLVTVSA
VL: B8 VL with N58K, Y99H, F101L
notes: as for B1
B13: 6M01 (antibody, V domains shown)
VH: EVLLQQSVADLVRPGASVKLSCTASGFNIKNTYMHWVSQRPEQGLEWIGRIDPANGYTQCAPSFQGKATITADTSSNTAYLHLSSLSSEDPAIYYCAGGSYYSAMDYWGQGTSVTVSS
VL: B8 VL with V11L, A105S, L111I
notes: as for B1
B14: 2M05 (antibody, V domains shown)
VH: EVQLQQSVAELVRPGASVKLSCTTSGFNIKDTYMHWVKQRPEQGLEWIGRIDPANGHTKYAPKFQDKATIAADTSSNTAYLQLSSLTSEDTAIYYCACGWDAAFAFWGQGTLVTVSA
VL: B8 VL with S26G, V90I, M94L, Y99F, F101L
notes: as for B1
B15: 5K03 (antibody, V domains shown)
VH: EVQLQQSVAELVRPGASVKLSCTTSGFNIKNTYMHWVKQRPEQGLEWIGRIDPANGYTECAPKFQGKATITADTSSNTAYLQLSSLTSEDTAIYYCTRSGEDYAMDYWGQGTSVTVSS
VL: B8 VL with T14I, S26R, S32R, L51V, F101Y, A105G, L111I
notes: as for B1
B16: 5F16 (antibody, V domains shown)
VH: B10 VH with D10E, K30E, I34V, V42E, T58I, M63K, R65Q, G66D, T78I, S88A
VL: B8 VL with L38F, Y99F, F101L, A105V
notes: as for B1
B17: 10H16 (antibody, V domains shown)
VH: EVQLQQSGAELVRPGASVKLSCTVSGFNIKDDFMNWVRQRPEQGLEWIGRIDPENGNTKYAPKFQDKATITADTSSNTAHLHLSSLTSEDTAVYFCARWIPPYWGQGTLVTVSA
VL: B8 VL with P12H, V19A, V63A, H96L, F101Y, A105G, L111I
notes: as for B1
B18: 5K16 (antibody, V domains shown)
VH: EVQLQQSVAELVRPGASVKLSCTASGFNIKNTYMYWVKQRPEQGLEWIGRIDPANGHTKCAPKFQGKATITADTSSNTAYLQLSSLTSEDSAIFYCARGEDYAMDYWGQGTSVTVSS
VL: B8 VL with A7S, L51V, H96L, A105S, L111I
notes: as for B1
B19: 4O24 (antibody, V domains shown)
VH: B12 VH with G26A, F57Y, H60Y, G66D, S72A, W100R, L112Q
VL: B8 VL with Y99H, F101L
notes: as for B1
B20: 1L17 (antibody, V domains shown)
VH: B8 VH with S28N, G49A, T58S, H60Y, I71T, T72A, Y94F, G100S, P101T, Y103S
VL: B8 VL with A105G, L111I
notes: as for B1
B21: 10J06 (antibody, V domains shown)
VH: QVQLQQPGAELVKPGASVKLSCKASGYTFTSYWMHWVKQRPGQGLEWIGMIHPNSGSSNHNGKFRGKATLTVDKSSSTAYIQLSSLTSEDSAVYYCARDDYAETMDYWGQGTSVTVSS
VL: DVVMTQTPLSLSITIGQPASISCKSSQSLLYSDGKTYLNWFQQRPGQSPKRLMYQVSKLDPGIPDRFSGSGSETDFTLKISRVEAEDLGVYYCLQGTYYPWTFGGGTKLEIK
notes: as for B1
B22: 9J08 (antibody, V domains shown)
VH: QVQLQQPGAELVKPGASVKLSCKASGYTFTSCWMHWVKQRPGQGLEWIGMIHPNGYSSNYNGKFKNKATLTIDNSSGTAYMQLSGLTSEDSAVYYCARDDYAETMDYWGQGTSVTVSS
VL: B21 VL with I13V, F41L, K79R
notes: as for B1

Biological target: T1, Human CD53-CHO (full-length human CD53 …)
Assay: flow cytometry on CD53-CHO cells, anti-mouse IgG AF647 gMFI, 4-parameter fit
Description: Binding of anti-human CD53 antibodies was determined by flow cytometry for their ability to bind human CD53-CHO cells compared to parental CHO-K1 cells. All assay steps were performed in FACS buffer (phosphate buffered saline pH 7.4 supplemented with 2% fetal bovine serum). Twenty thousand cells were seeded in 384-well plates and washed twice with ice cold buffer. Cells were incubated with purified antibodies titrated 3-fold from 200 nM to 0.09 nM at 4° C. for 1 hour with gentle agitation, then washed twice with FACS buffer and incubated with anti-mouse IgG Alexa Fluor® 647 and incubated at 4° C. for 40 minutes. Cells were washed twice and resuspended in FACS buffer. Analysis was preformed on the IntelliCyt® iQue Screener and gMFI values for Alexa Fluor® 647 were generated. EC50 values were determined in GraphPad Prism8. Concentration was transformed from nM to Log 10 nM and curves were fit with a nonlinear regression of log(agonist) vs. response−Variable slope (four parameters) or Y=Bottom+(Top−Bottom)/(1+10\hat{ }((LogEC50−X)*HillSlope)). EC50 values for all anti-human CD53 antibodies can be found in Table 6, and representative binding curves can be found in FIG. 7. Binding to CD53-CHO is represented by closed symbols and binding to parental CHO-K1 cells is represented by open symbols.

Binder | EC50
B1 | 2.1 nM
B2 | 3.1 nM
B3 | 2.1 nM
B4 | 9.1 nM
B5 | ~8 nM
B6 | ~23 nM
B7 | 36 nM
B8 | 2.5 nM
B9 | 11.1 nM
B10 | ~3 nM
B11 | ~0.3 nM
B12 | 25.4 nM
B13 | ~2 nM
B14 | 4.6 nM
B15 | ~2 nM
B16 | ~3 nM
B17 | ~8 nM
B18 | 5.6 nM
B19 | 8.1 nM
B20 | ~2 nM
B21 | 82.5 nM
B22 | 2.7 nM

From US20220251233A1 (VERSEAU THERAPEUTICS, published 2022)
